B1: OR4K15 (parent)
chain: GUUAACGGUCAUAGGCCAUGGAAACUAGGAGCACCAUUUCGCUGCCAGUGAAGAAAUGAACAAAGAAAAUCUGGGCCAGGCAGGCAUCAAAAGAAAUAGUCUUGCGCUCAACCAGAAAGUCUGUAAUCAUUUUAAGGGUA

Variants of: B1
Experiment: self-cleavage, relative activity (ratio to wild type); higher = more cleavage; in vitro, sequencing; the parent is a self-cleaving ribozyme

Variant	self-cleavage
GUUACCGGUCAUAGGCCAUGGAAACUAGGAGCACCAUUUCGCUGCCAGUGAAGAAAUGAGCAAAGAAAAUCUGGGCCAGGCAGGCAUCAAAAGAAAUAGUCUUGCGCUCAACCAGAAAGUCUGUAAUCAUUUUAAGGGUA	1.88
GUUAACGGUCAUAGGCCAUGGAAACUAGGAGCACCAUUUCGCUGCCAGUGAAGAAAUGAACAAAGAAAAUCUGGGCCAGGCAGGCAUCAAAAGAAUCAGUCUUGCGCUCAACCAGAAAGUCUGUAAUCAUUUUAAGGGUA	1.9
GUUAACAGUCAUAGGCCAUGGAAACUAGGAGCACCAUUUCGCUGCCAGUGAAGAAAUGAACAAAGAAAAUCUGGGCCAGGCAGGCAUCAAAAGAAAUAGACUUGCGCUCAACCAGAAAGUCUGUAAUCAUUUUAAGGGUA	0.82
GUUAACGGUCAUAGGCCAUGGAAACUAGGAGCACCAUGUCGCUGCCAGUGAAGAAAUGAACAAAGAAAAUCUGGGCCAGGCAGGCAUCAAAAGAAGUAGUCUUGCGCUCAACCAGAAAGUCUGUAAUCAUUUUAAGGGUA	0.69
GUUAACGGUCAUAGGCCAUGGAAACUAGGAGCACCAUUUCGCUGCCAGUGAAGAAAUGAACAAAGAAAAUCUGGGCCAGGCAGGCAUCAAAAGAAGUAGUCUUGCGCUCAACCAGAAAGUCUGUAAUCAUUGUAAGGGUA	1.85
GUUGACGGUCAUAGGCCAUGGAAACUAGGAGCACCAUUUCGCUGCCAGUGAAGAAAUGAACAAAGAAAAUCUGGGCCAGGCAGGCAUCAAAAGAAAUAGUCUUGCGCUCAACCAGGAAGUCUGUAAUCAUUUUAAGGGUA	0.94
GUUAACGGUCAUAGGCCAUGGGAACUAGGAGCACCAUUUCGCUGCCAGUGAAGAAAUGAACAAAGAAAAUCUGGGCCAGGCAGGCAUCAAAAGAAAUAGUCUUGCGCUCAACCAGAGAGUCUGUAAUCAUUUUAAGGGUA	1.68
GUUAACGGUCAUAGGCCAUGGAAACUAGGAGCACCAUUUCGCUGCCAGUGAAGAUAUGAACAAAGAAAAUCUGGGCCAGGCAGGCAUCAAAAGAAGUAGUCUUGCGCUCAACCAGAAAGUCUGUAAUCAUUUUAAGGGUA	1.61
GUUAACGGUCAUAGGCCAUGGAAACUAGGAGCACCAUUUCGCUGCCAGUGAAGAGAUGAACAAAGAAAAUCUGGGCCAGGCAGGCAUCAAAAGGAAUAGUCUUGCGCUCAACCAGAAAGUCUGUAAUCAUUUUAAGGGUA	1.39
GUUAACGGUCAUUGGCCAUGGAAACUAGGAGCACCAUUUCGCUGCCAGUGAAGGAAUGAACAAAGAAAAUCUGGGCCAGGCAGGCAUCAAAAGAAAUAGUCUUGCGCUCAACCAGAAAGUCUGUAAUCAUUUUAAGGGUA	0.73
GUUAACGGACAUAGGCCAUGGAAACUAGGAGCACCAUUUCGCUGCCAGUGAAGAAAUGAACAAAGAAAAUCUGGGCCAGGCAGGCAUCAAAAGAAAUAGUCUUGCGCUCAACCAGAGAGUCUGUAAUCAUUUUAAGGGUA	2.34
GUUAACGGUCAUAGGCCGUGGAAACUAGGAGCACCAUUUCGCUGCCAGUGAAGAAAUGAACAAAGAAAAUCUGGGCCAGGCAGGCAUCAAAAGAAAUAGUCUUGUGCUCAACCAGAAAGUCUGUAAUCAUUUUAAGGGUA	0.29
GUUAACGGUCAUAGGCCAUGGAAACUAGGAGCACCAUUUCGCUGCCAGUGAAGAAAUGAACAAAGAGAAUCUGGGCCAGGCAGGCAUCAAAAGAAAUAGUCUUGCGCUCAACCAGAAAGUCUGUAAUCAUUUUUAGGGUA	1.12
GUUGACGGUCAUAGGCCAUGGAAACUAGGAGCACCAUUUCGCUGCCAGUGAAGAAAUGAACAAAGAAAAUCUGGGCCAGGCAGGCAUCAAAAGAAAUAGUCUUGCGCUCAACCAGAAAGUCUGUAAUCAUUAUAAGGGUA	0.44
GUUAACGGUCGUAGGCCAUGGAACCUAGGAGCACCAUUUCGCUGCCAGUGAAGAAAUGAACAAAGAAAAUCUGGGCCAGGCAGGCAUCAAAAGAAAUAGUCUUGCGCUCAACCAGAAAGUCUGUAAUCAUUUUAAGGGUA	1.51
GUUAACGGUCAUAGGCCAUGGAAACUAGGAGCACCAUUUCGCUGCCAGUGAAGAAAUGAACAAAGAAAAUCUGGGCCAGGCAGGCAUCAAAAGAAAUAGUCUUGCGAUCAACCAGAAUGUCUGUAAUCAUUUUAAGGGUA	0
GUUAACGGUCAUAGGCCGUGGAAACUAGGAGCACCAUUUCGCAGCCAGUGAAGAAAUGAACAAAGAAAAUCUGGGCCAGGCAGGCAUCAAAAGAAAUAGUCUUGCGCUCAACCAGAAAGUCUGUAAUCAUUUUAAGGGUA	1.23
GUUAACGGUCAUAGGCCAUGGAAACUAGGAGCACCAUUUCGCUGCCAGUGAAGAAAUGAACAAAGAAAAUCUGGGCCAGGCAGCCAUCAAAAGGAAUAGUCUUGCGCUCAACCAGAAAGUCUGUAAUCAUUUUAAGGGUA	0.32
GUUAACGGUCAUAGGCCAUGGAAACUAGGAGCACCAUUUCGCUGCCAGUGAAGGAAUGAACAAAGAAAAUCUGGGCCAGGCAGGCAUCAAAAGAAAUAGUCUUGCGCACAACCAGAAAGUCUGUAAUCAUUUUAAGGGUA	0.02
GUUAACGGUCAUAGGCCAUGGAAACUAGGAGCACCAUUUCGCUGCCAGUGAAGAAAUGUACAAAGAAAAUCUGGGCCAGGCAGGCAUCAAAGGAAAUAGUCUUGCGCUCAACCAGAAAGUCUGUAAUCAUUUUAAGGGUA	0.79
GUUAACGGUCAUAGGCCAUGGAAACUAGGAGCACCAUUUGGCUGCCAGUGAAGAAAUGAACAAAGAAAAUCUGGGCCAGGCAGGCAUCAGAAGAAAUAGUCUUGCGCUCAACCAGAAAGUCUGUAAUCAUUUUAAGGGUA	1.44

Variant	self-cleavage
GUUAACGGUCAUAGGCCAUUGAAACUAGGAGCACCAUUUCGCUGCCAGUGAAGAAAUGAACAAAGAAAAUCUGGGCCAGGCAGGCAUCAAAAGAAAUAGUCUUGCGCUCAACCAGAAAGUCUGUAAUCACUUUAAGGGUA	1.04
GUUAACGGUCAUAGGCCGUGGAAACUAGGAGCACCAUUCCGCUGCCAGUGAAGAAAUGAACAAAGAAAAUCUGGGCCAGGCAGGCAUCAAAAGAAAUAGUCUUGCGCUCAACCAGAAAGUCUGUAAUCAUUUUAAGGGUA	1.77
GUUAACGGUCAUAGGCCAUGGAAACUAGGAGCACCAUUUCGCUGCCAGUGAGGAAAUGAACAAAGAAAAUCUGGGCCAGGCAGGCAUCAAAAGAAAUAGUCUUGCGCUCAACCAGAAAGCCUGUAAUCAUUUUAAGGGUA	1.16
GUUAACGGUCAUAGGCCAUGGAAACUAGGAGCACCAUUUCGCUGCCAGUGAAGAAAUGAACAAAGAAAAUCUGGGCCAGGCAGGCUUCAAAAGAAAUAGUCUUGCGCUCAACCAGAAAGUCUGUAAUCAUUUUAAGGGGA	1.57
GUUAACGGUCAUAGGCCAUGGAAACUAGGAGCACCAUUUCGCUGCUAGUGGAGAAAUGAACAAAGAAAAUCUGGGCCAGGCAGGCAUCAAAAGAAAUAGUCUUGCGCUCAACCAGAAAGUCUGUAAUCAUUUUAAGGGUA	1.42
GUUAACGGUCAUAGGCCAUGGAAACUAGGAGCACCAUUUCGCUGCCAGUGAAGAAGUGAACCAAGAAAAUCUGGGCCAGGCAGGCAUCAAAAGAAAUAGUCUUGCGCUCAACCAGAAAGUCUGUAAUCAUUUUAAGGGUA	1.26
GUUAACGGUCAUAGGCCAUGGAAACUAGGAGCACCAUUUCGCUGCCAGUGAAGAAAUGAACAAAGAAAAUCUGGGCCAGGCAGGCAUCCAAAGAAAUAGUCUUGCGCUCAACCAGAAAGUCCGUAAUCAUUUUAAGGGUA	1.75
GUUAACGGUCAUAGGCCAUGGAAACUAGGAGCACCAUUUCGCUGCCAGUGAAGAAAUGAACAAAGAAAAUCUGGGCCAGGCAGGCAUCAAAAGAAAUAGUCUUGUGCUCAACCAGGAAGUCUGUAAUCAUUUUAAGGGUA	0.03
GUUAACGGUCAUAGGCCAUGGUAACUAGGAGCACCAUUUCGCUGCCAGUGAAGAAAUGAACAAAGAAAAUCUGGGCCAGGCUGGCAUCAAAAGAAAUAGUCUUGCGCUCAACCAGAAAGUCUGUAAUCAUUUUAAGGGUA	0.32
GUUAACGGUCAUAGGCCAUGGAAACUAGGAGCACCAUUUCGCUGCCAGUGAAGAAAUGAACAAAGAACAUCUGGGCCAGGCAGGCAUCAAAAGAAAUAGUCUUGCGCUCAACCAGAAAGUCUGUAAUCAUUCUAAGGGUA	1.61
GUUAACGGUCAUAGGCCAUGGAAACUAGGAGCACCAUUUCGCUGCCAGUGAAGAAAUGAGCAAAGAAGAUCUGGGCCAGGCAGGCAUCAAAAGAAAUAGUCUUGCGCUCAACCAGAAAGUCUGUAAUCAUUUUAAGGGUA	1.31
GUUAACGGUCAUAGGCCAUGGAAACUAGGAGCACCAUUUCGCAGCCAGUGAAGAAAUGAACAAAGAAAAUCUGGGCCAGGCAGGCAUCAAAAGAAAUAGUCUUGUGCUCAACCAGAAAGUCUGUAAUCAUUUUAAGGGUA	0.1
GUUAACGGUCAUAGGCCAUGGAAACUAGGAGCACCAUUUCGCUGCCAGUGAAGAAAUGAACAAAGAAAAUCUGGGCCAGGCAGGCAUCAAUAGAAAUAGUCUUGCGCUCAACCGGAAAGUCUGUAAUCAUUUUAAGGGUA	0.62
GUUAACGGUCAUAGGCCAUGGAAACUAGGAGCACCAUUUCGCUGCCAGUGAAGAAAUGAACAAAGAAAAUCUGGGCCAGGCGGGCAUCAAAAGAGAUAGUCUUGCGCUCAACCAGAAAGUCUGUAAUCAUUUUAAGGGUA	1.23
GUUAACGGUCAUAGGCCAUGGAAACUAGGAGCGCCAUUUCGCUGCCAGUGAAGAAAUGAACAAAGAAAAUCUGGGCCAGGCAGGCAUCAAAAGAAAUGGUCUUGCGCUCAACCAGAAAGUCUGUAAUCAUUUUAAGGGUA	0.77
GUUAACGGUCAUAGGCCAUGGAAACUAGGAGCACCAUUUCGCUGCCAGUGAAGUAAUGAACAAAGAAAAUCUGGGCCAGGCAGGCAUCAAGAGAAAUAGUCUUGCGCUCAACCAGAAAGUCUGUAAUCAUUUUAAGGGUA	0.86
GUUAACGGUCAUAGGCCAUGGAAACUAGGAGCACCAUUUCGCUGCCAGUGAAGAGAUGAACAAAGAAAAUCUGGGCCAGGCAGGCAUCAAAAGAAAUAGUCUUGCACUCAACCAGAAAGUCUGUAAUCAUUUUAAGGGUA	0.01
GUUAACGGUCAUAGGCCAUGGAACCUAGGAGCACCAUUUCGCUGCCAGUGAAGAAAUGAACAAAGAAAAUCUGGGCCAGGCAGGCAUCAAAGGAAAUAGUCUUGCGCUCAACCAGAAAGUCUGUAAUCAUUUUAAGGGUA	1.9
GUUAACGGUCAUAGGCCAUGGAAACUAGGAGCACCAUUUCGCUGCCAGUGAAGAAAUGAACAAAGAAAAUCUGGGCCUGGCAGGCAUCAAAAGAAAUAGUCUUGCGCUCAACCAGAAAGUCUGUAAUCAUUUUAAGGAUA	0.36
GUUAACGGUCAUAGGCCAUGGAAACUAGGAGCACCAUUUCGCUGCCAGUGAAGAAAUGAACAAAGAAAAUCUGAGCCAGGCAGGCAUCAAAAGAAAUAGCCUUGCGCUCAACCAGAAAGUCUGUAAUCAUUUUAAGGGUA	0.45

— the RNAGym collection of RNA variant scans (doi:10.7554/elife.90254)
